Data taken from article PMC6030205, “The REN4 rheostat dynamically coordinates the apical and lateral domains of Arabidopsis pollen tubes” (Nature Communications, 2018).

Molecular target: T1, MBP-REN4 (Arabidopsis, UniProt O48716 1-465)
T1 construct: REN4, Arabidopsis, AT2G26490; full length REN4 CDS with stop codon (465 aa) in pDest-566; CDS with stop codon in pDest-566 (Addgene) implies an N-terminal MBP; that vector may also add a His6 tag (surmise); also called REN4 fused with MBP; source: E. coli, purified (amylose beads)
T1 sequence (looked up): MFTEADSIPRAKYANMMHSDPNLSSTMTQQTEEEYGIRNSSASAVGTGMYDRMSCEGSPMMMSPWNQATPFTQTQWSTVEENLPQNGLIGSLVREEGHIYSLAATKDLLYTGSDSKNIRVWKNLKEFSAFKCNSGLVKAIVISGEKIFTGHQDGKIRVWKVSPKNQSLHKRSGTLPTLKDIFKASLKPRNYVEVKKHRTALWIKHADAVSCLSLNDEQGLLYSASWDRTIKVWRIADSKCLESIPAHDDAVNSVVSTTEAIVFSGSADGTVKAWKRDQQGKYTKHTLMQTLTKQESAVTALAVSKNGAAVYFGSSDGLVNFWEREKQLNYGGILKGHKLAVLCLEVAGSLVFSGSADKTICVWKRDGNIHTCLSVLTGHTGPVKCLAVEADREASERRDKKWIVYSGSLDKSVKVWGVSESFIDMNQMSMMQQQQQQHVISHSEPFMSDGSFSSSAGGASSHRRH
Test: pull-down; MBP-REN4 on amylose agarose beads; about 1 ug GST-ROP1 preloaded with 1 mM GTP or GDP; binding buffer 50 mM Tris-HCl pH 7.5, 10 mM MgCl2, 1 mM DTT, 10 mg/ml BSA, 5 mM EDTA; 4 C, 1 h; washes with 1% Triton X-100; anti-GST and anti-MBP blots
Conditions: both partners purified

binding result: binds
B1: GST-CA-ROP1 (G15V), GTP-bound constitutively active form of ROP1 (natural protein)
chain: not shown
notes: ROP1, Arabidopsis; full length ROP1 CDS with stop codon, mutated G15V, in pDest15; Incubated with 1 mM GTP before the pull-down; source: E. coli, purified (glutathione-agarose); not shown: GST, N-terminal, kept
